Experimental findings from US20080207488A1, “Method for Detecting Peptides Comprising a Cross-B Structure” (priority 2005, published 2008) are described below.

Data set [1] in a line: Stability testing of biopharmaceuticals under denaturing conditions (ThT fluorescence, tPA activation). Type of data set: physicochemical. As to conditions: ThT at 25 μg/mL, tPA activation at 100 μg/mL. The method, then: To mimic accelerated stability testing several therapeutics were exposed to denaturing conditions and assayed for amyloid-like properties before and after treatment by tPA activation assay at 100 μg/mL protein and ThT fluorescence enhancement assay at 25 μg/mL protein. For this purpose, 5 mg/mL Glucagon (Glucagen; Novo Nordisk Farma B.V., Alphen aan de Rijn, The Netherlands) was incubated at 37° C. in 0.01 M HCl for 48 hours. One mg/mL Etanercept (Enbrel; Wyeth Pharmaceuticals B.V., Hoofddorp, The Netherlands) in 67 mM sodium phosphate buffer, 100 mM NaCl pH 7.0 was gradually heated from 30° C. to 85° C. over a period of 12 minutes and afterwards cooled to 4° C. for 5 minutes, this treatment was repeated 4 times. Abciximab (Reopro; Centocor B.V., Leiden, The Netherlands) and Infliximab (Remicade; Schering-Plough B.V., Utrecht, The Netherlands) were incubated at 65° C. for 16 and 72 hours, respectively.

A further data set has as its target T1, tPA (Homo sapiens, UniProt P00750).
T1 construct: purchased Boehringer-Ingelheim (Actilyse, Alteplase)
The data set is described as follows: tPA binding assay with immobilized biopharmaceuticals in an ELISA. Conditions: therapeutic coated 1:10; one-site binding fit. The protocol:
Nunc Immobilizer plates (Nalge Nunc, #436013, Rochester, N.Y., USA) were coated with 50 μL containing 5 μg/mL of sample protein (unless indicated otherwise) in 100 mM NaHCO3, pH 9.6, 0.05% m/v NaN3 for 1 hour at room temperature. Plates were washed twice with Tris buffered saline pH 7.2 containing 0.1% Tween20 (TBST) and blocked with PBS containing 1% Tween20 for 1 hour at room temperature. […] Plates were washed five times with TBST and incubated with peroxidase labeled anti-mouse immunoglobulins (RAMPO; DAKOCytomation, Glostrup, Denmark) diluted 1:3000 in PBST for 30 minutes at room temperature. Plates were washed five times with PBS 0.1% Tween20, and stained with 100 μL/well of tetramethyl-benzidine (TMB) substrate (Biosource Europe, Nivelles, Belgium). The reaction was terminated with 50 μL/well of 2 M H2SO4 and substrate conversion was read at 450 nm on a Spectramax340 microplate reader. Curves were fitted with a one-site binding model (GraphPad Prism version 4.02 for Windows, Graphpad Software, CA, USA) from which Kd and Bmax were determined.
(§1) Protein therapeutics were obtained from the local hospital pharmacy and analyzed within the expiry limits as stated by the manufacturers.

A further data set is described as follows: Congo red fluorescence. As to conditions: marketed biopharmaceutical within expiry limits, five μL tested. Type of data set: physicochemical. The method, then: Background signals from buffer, buffer with Congo red and protein/peptide solution without Congo red were subtracted from corresponding measurements with protein solution incubated with Congo red. Fluorescence was measured in triplicate on a Hitachi F-4500 fluorescence spectrophotometer (Ltd., Tokyo, Japan).
Formulated protein therapeutics were obtained from the local hospital pharmacy and were used as supplied by the manufacturers. […] Lyophilized therapeutics were dissolved according to the manufacturers recommendations. […] Other protein therapeutics were only kept at 4° C., and assayed for the presence of cross-β structure conformation at shown time points. Enhancement in fluorescence of ThT and Congo red was measured with all formulated protein therapeutics. For this purpose, proteins were diluted to the indicated concentrations. […] Zinc-insulin was diluted tenfold in the activation assay, GH was diluted to a final concentration of 500 μg ml^−1. Activation of factor XII and prekallikrein by the therapeutics was tested in the chromogenic factor XII assay (see above). […] After coating, plates were blocked with Blocking Reagent (Roche Diagnostics, Almere, The Netherlands).
as §1

For another data set, the target named is T2, LRP cl-IV (Homo sapiens, UniProt Q07954).
T2 construct: Cluster IV of the low-density lipoprotein (LDL) receptor-related protein (LRP cl-IV) was cloned from complete cDNA of THP1 cells; made in house; host or cells: HEK293E/S cells; culture supernatant used without purification
The data set is described as follows: ELISA, binding of LRP cluster IV to misfolded proteins. Conditions: 5 μg/ml coated protein. The protocol: Binding of LRP cl-IV to misfolded protein was determined using an enzyme linked immuno sorbent assay (ELISA) set-up. For this purpose 50 μl of a 5 μg/ml solution of BSA, BSA-AGE, Hb or Hb-AGE or coat buffer (for negative control) was coated for 1 h with motion. Proteins were diluted in coat buffer (100 mM NaHCO3 pH 9.6). The BSA and Hb controls were prepared freshly by dissolving proteins at 1 mg/ml in PBS by rolling for 10 minutes on a roller bank at room temperature, 10 minutes incubation at 37° C. followed by again 10 minutes incubation at the roller bank. Coat controls were performed with anti-glycated protein antibody 4B5, anti-albumin antibody or anti Hb antibody. After coating the plates were washed twice with PBS/0.1% Tween-20 (v/v) and blocked with 300 μl/well blocking reagent (Roche Diagnostics, Almere, The Netherlands) for 1 h at room temperature with motion. […] After five washes with wash buffer binding of antibody was assessed with a secondary antibody. […] After 5 washes with wash buffer, binding of anti-FLAG antibody and secondary antibodies was assessed with 100 μl/well TMB substrate (ready to use from Tebu Bio). […] After ˜2 minutes absorbance was read at 450 nm.
In general terms: In an ELISA, binding on a coated surface is turned into a signal by an enzyme label.

T2 sequence (Q07954 3332-3778 limits assumed): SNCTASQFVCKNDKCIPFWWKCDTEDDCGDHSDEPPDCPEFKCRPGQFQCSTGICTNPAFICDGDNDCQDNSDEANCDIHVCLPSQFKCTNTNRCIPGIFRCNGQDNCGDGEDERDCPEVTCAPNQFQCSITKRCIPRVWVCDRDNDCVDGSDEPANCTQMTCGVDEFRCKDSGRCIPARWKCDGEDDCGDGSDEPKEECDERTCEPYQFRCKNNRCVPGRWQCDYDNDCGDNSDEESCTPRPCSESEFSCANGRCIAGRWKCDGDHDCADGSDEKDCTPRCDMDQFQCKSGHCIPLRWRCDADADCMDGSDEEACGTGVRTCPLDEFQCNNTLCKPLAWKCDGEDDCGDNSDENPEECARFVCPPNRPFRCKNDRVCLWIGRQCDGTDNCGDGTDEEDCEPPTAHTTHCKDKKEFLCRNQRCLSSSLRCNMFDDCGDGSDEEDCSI
T1 sequence (P00750 36-562): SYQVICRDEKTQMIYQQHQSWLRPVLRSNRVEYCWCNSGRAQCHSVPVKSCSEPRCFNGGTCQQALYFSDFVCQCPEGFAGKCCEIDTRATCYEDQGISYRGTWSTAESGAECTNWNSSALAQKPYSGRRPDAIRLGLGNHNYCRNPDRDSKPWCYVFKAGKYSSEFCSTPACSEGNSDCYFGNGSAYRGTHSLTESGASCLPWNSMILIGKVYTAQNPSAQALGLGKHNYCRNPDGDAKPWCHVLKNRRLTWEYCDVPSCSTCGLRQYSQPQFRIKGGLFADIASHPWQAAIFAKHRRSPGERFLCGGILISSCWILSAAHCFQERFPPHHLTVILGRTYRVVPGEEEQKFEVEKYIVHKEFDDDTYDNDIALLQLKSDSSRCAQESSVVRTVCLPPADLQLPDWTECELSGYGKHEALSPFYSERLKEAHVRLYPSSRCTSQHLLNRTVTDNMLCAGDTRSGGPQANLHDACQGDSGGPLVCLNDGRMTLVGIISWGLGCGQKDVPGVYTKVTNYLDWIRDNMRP

Take “Abciximab: abciximab, an inhibitor of blood platelet aggregation (ReoPro, Centocor)”: the “amyloid-like properties after exposure to harsh denaturing conditions (low pH, heat)” value in data set [1] was “amyloid-like properties are adopted”. Also, in the data set with tPA, the “tPA Binding Bmax (OD450 nm)” value was 0.5329 OD450 nm. The “Fluorescence (a.u. +/− SD) CR” value in the data set “Congo red fluorescence” is reported as 25 +/− 1 a.u.

Regarding “albumin-AGE: advanced glycation end-product modified bovine serum albumin”, the “binding of LRP cl-IV” value with LRP cl-IV is given as “binds specifically”.
